Test results published in paper doi:10.64898/2025.12.30.697126.

Target: SUMO-SRCAP_(521-569) (human)
Experiment: ITC

SUMO-SRCAP_(521-569) (human), sequence (Q6ZRS2 521-569): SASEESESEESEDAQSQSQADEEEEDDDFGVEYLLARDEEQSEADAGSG

Kd: 0.256 µM
Substance: H2A.Z/H2B dimer, wild type (from UniProt P0C0S5 1-128; P06899 1-126) (complex)
